Test results taken from patent US12612465B2, “Formulations comprising PCSK9 specific monoclonal antibodies” (Amgen Inc., priority 2012, dated 2026).

Tests used:
Assay in all cases: 11F1 binding specificity competition assay
[1] = biological target: PCSK9 (Homo sapiens, UniProt Q8NBP7); details: 0.4 μg/mL 11F1, 0 to 20 μg/mL competitor
Method: (§1) Biotinylated PCSK9, diluted in buffer A (25 mM Tris, 150 mM NaCl, 0.1% BSA, 0.05% tween, pH 7.5) was bound to neutravidin coated 96 well plates at a concentration of 0.2 μg/mL, for one hour incubation at room temperature. Separately, 0.4 μg/mL of 11F1 was incubated for one hour at room temperature with various concentrations (ranging from 0 to 20 μg/mL) of either PCSK1, PCSK2, PCSK7, PCSK9 or furin (R&D Systems, Minneapolis, Minn.) (diluted in buffer A w/o tween). Furin inhibitor, at 4.5 μg/mL, was included with all furin containing reactions. The PCSK9 coated streptavidin plate was washed with buffer A and the antibody/proprotein convertase mixture was added to the plate and incubated at room temperature for one hour. After washing, bound antibody was detected by incubation with goat-α-human Fc-HRP (160 ng/mL, diluted in buffer A) (Jackson Laboratories, Bar Harbor, Me.) followed by TMB substrate. The reaction was stopped with 1 N HCl and the absorbance was read at a wavelength of 450 nm on a Spectramax Plus 384 spectrophotometer (Molecular Devices Inc., Sunnyvale, Calif.).
(§2) This assay relied on the ability of proprotein convertase in solution to compete for the binding of 11F1 to plate-captured PCSK9. […] All results were expressed as the mean OD450 value±standard deviation versus concentration of the proprotein convertase. […] Therefore, at the protein concentrations studied, 11F1 binds only to PCSK9 and not to the other proprotein convertase family members tested.

[2] = biological target: T1, PCSK2 (Homo sapiens, UniProt P16519); details: 0.4 μg/mL 11F1, 0 to 20 μg/mL competitor
T1 construct: purchased R&D Systems
T1 sequence (P16519 110-638): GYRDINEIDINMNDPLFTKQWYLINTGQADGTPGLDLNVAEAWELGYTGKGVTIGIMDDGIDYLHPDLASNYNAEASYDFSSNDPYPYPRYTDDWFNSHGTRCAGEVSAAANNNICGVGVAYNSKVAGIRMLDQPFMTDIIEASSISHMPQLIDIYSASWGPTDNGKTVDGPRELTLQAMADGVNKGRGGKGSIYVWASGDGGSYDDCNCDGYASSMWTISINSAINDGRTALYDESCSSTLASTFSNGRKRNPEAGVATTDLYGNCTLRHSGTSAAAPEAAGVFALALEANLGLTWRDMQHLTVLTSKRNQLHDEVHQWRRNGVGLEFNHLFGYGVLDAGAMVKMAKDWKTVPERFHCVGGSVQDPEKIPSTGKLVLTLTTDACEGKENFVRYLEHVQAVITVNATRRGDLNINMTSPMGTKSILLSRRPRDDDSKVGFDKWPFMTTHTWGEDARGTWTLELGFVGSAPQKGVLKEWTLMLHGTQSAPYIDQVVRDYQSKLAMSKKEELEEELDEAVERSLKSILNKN
Method: as §1, §2

[3] = biological target: T2, PCSK7 (Homo sapiens, UniProt Q16549); details: 0.4 μg/mL 11F1, 0 to 20 μg/mL competitor
T2 construct: purchased R&D Systems
T2 sequence (Q16549 142-785): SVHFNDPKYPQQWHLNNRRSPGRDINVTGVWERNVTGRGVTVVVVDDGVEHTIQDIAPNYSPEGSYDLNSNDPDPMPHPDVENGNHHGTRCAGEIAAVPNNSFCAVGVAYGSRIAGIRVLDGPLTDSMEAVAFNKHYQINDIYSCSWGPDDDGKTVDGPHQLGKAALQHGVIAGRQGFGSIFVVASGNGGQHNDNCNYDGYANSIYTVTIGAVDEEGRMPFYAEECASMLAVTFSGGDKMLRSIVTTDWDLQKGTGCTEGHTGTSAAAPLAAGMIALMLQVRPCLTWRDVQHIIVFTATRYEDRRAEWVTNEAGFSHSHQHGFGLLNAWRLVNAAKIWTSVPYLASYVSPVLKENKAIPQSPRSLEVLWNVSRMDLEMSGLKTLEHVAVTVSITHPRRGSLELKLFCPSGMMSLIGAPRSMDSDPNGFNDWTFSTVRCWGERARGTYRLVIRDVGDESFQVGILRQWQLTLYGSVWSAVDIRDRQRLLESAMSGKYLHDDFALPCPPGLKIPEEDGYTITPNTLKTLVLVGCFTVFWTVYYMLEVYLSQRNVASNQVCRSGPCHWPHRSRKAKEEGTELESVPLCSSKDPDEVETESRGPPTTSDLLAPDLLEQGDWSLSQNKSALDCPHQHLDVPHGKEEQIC
Method: as §1, §2

[4] = biological target: T3, PCSK1 (Homo sapiens, UniProt P29120); details: 0.4 μg/mL 11F1, 0 to 20 μg/mL competitor
T3 construct: purchased R&D Systems
T3 sequence (P29120 111-753): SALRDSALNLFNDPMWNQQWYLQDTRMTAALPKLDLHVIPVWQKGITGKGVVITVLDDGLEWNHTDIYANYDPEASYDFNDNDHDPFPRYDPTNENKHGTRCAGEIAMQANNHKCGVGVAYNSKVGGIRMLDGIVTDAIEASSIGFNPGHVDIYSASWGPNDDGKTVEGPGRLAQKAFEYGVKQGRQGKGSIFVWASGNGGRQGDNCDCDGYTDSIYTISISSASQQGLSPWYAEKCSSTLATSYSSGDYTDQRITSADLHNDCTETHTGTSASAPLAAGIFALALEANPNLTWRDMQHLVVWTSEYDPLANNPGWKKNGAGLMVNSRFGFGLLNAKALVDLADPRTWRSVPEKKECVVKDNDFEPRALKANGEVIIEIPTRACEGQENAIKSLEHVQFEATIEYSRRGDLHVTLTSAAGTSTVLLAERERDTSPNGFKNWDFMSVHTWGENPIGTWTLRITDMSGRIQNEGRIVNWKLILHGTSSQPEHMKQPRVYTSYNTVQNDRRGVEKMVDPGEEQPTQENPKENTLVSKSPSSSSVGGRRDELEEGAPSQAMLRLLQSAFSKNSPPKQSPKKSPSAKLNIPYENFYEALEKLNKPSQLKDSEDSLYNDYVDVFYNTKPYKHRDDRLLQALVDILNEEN
Method: as §1, §2

[5] = biological target: T4, furin (Homo sapiens, UniProt P09958); details: 0.4 μg/mL 11F1, 0 to 20 μg/mL competitor, furin inhibitor 4.5 μg/mL
T4 construct: purchased R&D Systems
T4 sequence (P09958 108-794, species assumed): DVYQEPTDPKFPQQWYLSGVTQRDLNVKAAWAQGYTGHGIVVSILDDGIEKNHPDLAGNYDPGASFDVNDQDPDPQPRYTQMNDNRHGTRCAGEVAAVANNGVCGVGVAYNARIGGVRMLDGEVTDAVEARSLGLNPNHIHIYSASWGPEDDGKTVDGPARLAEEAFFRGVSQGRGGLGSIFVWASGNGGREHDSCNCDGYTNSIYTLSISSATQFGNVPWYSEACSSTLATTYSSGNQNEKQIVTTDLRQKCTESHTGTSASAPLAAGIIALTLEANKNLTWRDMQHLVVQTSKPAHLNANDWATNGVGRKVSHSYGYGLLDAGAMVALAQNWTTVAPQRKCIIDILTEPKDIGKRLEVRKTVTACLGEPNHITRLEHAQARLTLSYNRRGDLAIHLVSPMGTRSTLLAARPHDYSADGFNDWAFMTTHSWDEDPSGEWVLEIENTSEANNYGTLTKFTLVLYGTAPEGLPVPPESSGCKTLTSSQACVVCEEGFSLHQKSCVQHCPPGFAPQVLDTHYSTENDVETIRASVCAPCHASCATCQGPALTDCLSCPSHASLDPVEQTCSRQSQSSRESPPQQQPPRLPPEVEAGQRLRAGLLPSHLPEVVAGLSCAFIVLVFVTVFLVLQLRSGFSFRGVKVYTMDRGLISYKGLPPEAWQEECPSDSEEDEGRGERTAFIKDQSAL
Method: as §1, §2

PCSK9, sequence (Q8NBP7 153-692): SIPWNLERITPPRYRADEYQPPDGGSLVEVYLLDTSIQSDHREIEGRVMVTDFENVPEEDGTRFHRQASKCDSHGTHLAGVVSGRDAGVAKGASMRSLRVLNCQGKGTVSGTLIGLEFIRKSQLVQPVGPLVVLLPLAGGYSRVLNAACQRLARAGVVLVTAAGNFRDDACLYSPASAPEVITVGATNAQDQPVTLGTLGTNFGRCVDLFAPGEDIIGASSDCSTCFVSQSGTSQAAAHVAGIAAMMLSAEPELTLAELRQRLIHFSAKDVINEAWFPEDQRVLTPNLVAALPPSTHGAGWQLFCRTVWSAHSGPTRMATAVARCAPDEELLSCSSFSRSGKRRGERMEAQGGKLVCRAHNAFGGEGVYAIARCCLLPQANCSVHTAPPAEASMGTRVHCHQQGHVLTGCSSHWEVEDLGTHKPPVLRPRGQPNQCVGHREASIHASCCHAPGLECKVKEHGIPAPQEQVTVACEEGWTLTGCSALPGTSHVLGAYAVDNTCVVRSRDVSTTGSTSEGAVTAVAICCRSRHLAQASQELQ

## 11F1: anti-PCSK9 ABP, light/heavy variable region SEQ ID NO 465/463 [Antibody 11F1]
[1]
  effect of pre-incubation with PCSK9 in solution on 11F1 binding to plate-captured PCSK9: dose dependently and robustly reduced
[2]
  effect of pre-incubation with PCSK2 in solution on 11F1 binding to plate-captured PCSK9: did not significantly impact the binding
[3]
  effect of pre-incubation with PCSK7 in solution on 11F1 binding to plate-captured PCSK9: did not significantly impact the binding
[4]
  effect of pre-incubation with PCSK1 in solution on 11F1 binding to plate-captured PCSK9: did not significantly impact the binding
[5]
  effect of pre-incubation with furin in solution on 11F1 binding to plate-captured PCSK9: did not significantly impact the binding
